The target in this assay is PAH2 domain of mSin3A. The assay can be described thus: fluorescence polarisation. (Fluorescence polarisation rises when a labelled molecule tumbles more slowly, as on binding a larger partner.)

pIC50: −log10 of the molar value.

Sequence of PAH2 domain of mSin3A (Q60520 whole entry, the tested form may be a part): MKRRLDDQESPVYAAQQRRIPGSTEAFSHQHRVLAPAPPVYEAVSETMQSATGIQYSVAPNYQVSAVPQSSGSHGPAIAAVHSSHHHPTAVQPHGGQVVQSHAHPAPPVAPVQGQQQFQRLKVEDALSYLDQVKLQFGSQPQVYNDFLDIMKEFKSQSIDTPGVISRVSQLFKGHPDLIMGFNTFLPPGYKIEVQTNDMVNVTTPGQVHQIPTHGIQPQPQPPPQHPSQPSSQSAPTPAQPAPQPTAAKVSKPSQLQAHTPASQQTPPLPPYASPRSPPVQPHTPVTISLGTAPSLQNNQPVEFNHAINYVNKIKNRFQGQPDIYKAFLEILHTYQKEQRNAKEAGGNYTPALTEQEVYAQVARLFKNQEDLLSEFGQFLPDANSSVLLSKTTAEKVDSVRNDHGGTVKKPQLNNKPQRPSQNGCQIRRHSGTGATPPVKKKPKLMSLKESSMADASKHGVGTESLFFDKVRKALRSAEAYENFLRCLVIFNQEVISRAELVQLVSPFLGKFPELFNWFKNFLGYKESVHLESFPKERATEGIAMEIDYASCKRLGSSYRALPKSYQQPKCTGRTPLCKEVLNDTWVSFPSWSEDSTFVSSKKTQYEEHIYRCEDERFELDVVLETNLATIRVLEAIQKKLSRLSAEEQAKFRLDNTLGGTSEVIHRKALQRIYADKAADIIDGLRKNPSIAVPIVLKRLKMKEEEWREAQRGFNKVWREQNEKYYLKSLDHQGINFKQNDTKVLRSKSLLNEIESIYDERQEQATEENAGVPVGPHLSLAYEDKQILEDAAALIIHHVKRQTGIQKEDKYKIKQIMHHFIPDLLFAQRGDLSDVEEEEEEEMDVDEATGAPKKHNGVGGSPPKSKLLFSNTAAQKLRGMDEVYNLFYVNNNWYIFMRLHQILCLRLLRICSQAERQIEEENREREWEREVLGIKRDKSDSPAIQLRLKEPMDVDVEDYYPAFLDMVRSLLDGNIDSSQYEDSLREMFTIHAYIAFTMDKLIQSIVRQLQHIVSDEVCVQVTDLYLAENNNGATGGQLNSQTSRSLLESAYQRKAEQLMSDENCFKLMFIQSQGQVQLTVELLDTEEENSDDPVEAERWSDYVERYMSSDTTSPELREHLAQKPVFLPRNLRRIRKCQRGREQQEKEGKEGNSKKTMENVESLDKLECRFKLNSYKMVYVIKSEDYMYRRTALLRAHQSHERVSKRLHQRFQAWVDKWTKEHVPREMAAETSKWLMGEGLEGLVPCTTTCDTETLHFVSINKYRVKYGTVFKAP

Usually pIC50 stands for the negative decadic logarithm of the IC50, by convention in mol/L. Turning to PF1-SID peptide, the pIC50 was 4.81.

On to Tat-SID (MAD-SID peptide), for which the pIC50 was 5.90.
